Measured values: patent publication US20240199745A1, “ANTI-EGFR ANTIBODY DRUG CONJUGATES” (priority 2016, published 2024)

Key:
[1] = molecular target: human EGFR (huEGFR) over-expressed on mcl-1-/- mouse embryonic fibroblasts (human, UniProt P00533 25-1210); assay: cell-based or functional assay
[2] = molecular target: EGFR on EGFR positive non-small cell lung cancer cells NCI-H1650 (UniProt P00533 25-1210); assay: cell-based or functional assay

B1: AbA-CZ (antibody, human IgG1, kappa, V domains shown)
VH: EVQLQESGPGLVKPSQTLSLTCTVSGYSISRDFAWNWIRQPPGKGLEWMGYISYNGNTRYQPSLKSRITISRDTSKNQFFLKLNSVTAADTATYYCVTASRGFPYWGQGTLVTVSS
VL: DIQMTQSPSSMSVSVGDRVTITCHSSQDINSNIGWLQQKPGKSFKGLIYHGTNLDDGVPSRFSGSGSGTDYTLTISSLQPEDFATYYCVQYAQFPWTFGGGTKLEIKR
modifications: synthon CZ on reduced interchain cysteines; average DAR 3.2 per ADC
huEGFR+ mcl-1-/- MEF EC50 [1]: 0.3 nM | H1650 CTG-3D EC50 [2]: 0.88 µg/mL | H1650 GFP Flourescence EC50 [2]: 1.24 µg/mL

B2: AbB-SE (antibody, human IgG1, kappa, V domains shown)
VH: EVQLQESGPGLVKPSQTLSLTCTVSGYSISNDFAWNWIRQPPGKGLEWMGYISYKGNTRYQPSLKSRITISRDTSKNQFFLKLNSVTAADTATYYCVTASRGFPWWGQGTLVTVSS
VL: DIQMTQSPSSMSVSVGDRVTITCHSSQDINSNIGWLQQKPGKSFKGLIYHGTNLDDGVPSRFSGSGSGTDYTLTISSLQPEDFATYYCVQYAQFPWTFGGGTKLEIKR
modifications: synthon SE on reduced interchain cysteines; average DAR 2.2 per ADC
huEGFR+ mcl-1-/- MEF EC50 [1]: 39 nM | H1650 CTG-3D EC50 [2]: 0.59 µg/mL | H1650 GFP Flourescence EC50 [2]: 2.18 µg/mL

B3: AbB-XW (antibody, human IgG1, kappa, V domains shown)
VH: EVQLQESGPGLVKPSQTLSLTCTVSGYSISNDFAWNWIRQPPGKGLEWMGYISYKGNTRYQPSLKSRITISRDTSKNQFFLKLNSVTAADTATYYCVTASRGFPWWGQGTLVTVSS
VL: DIQMTQSPSSMSVSVGDRVTITCHSSQDINSNIGWLQQKPGKSFKGLIYHGTNLDDGVPSRFSGSGSGTDYTLTISSLQPEDFATYYCVQYAQFPWTFGGGTKLEIKR
modifications: synthon XW on reduced interchain cysteines; average DAR 3.2 per ADC
huEGFR+ mcl-1-/- MEF EC50 [1]: 0.65 nM | H1650 CTG-3D EC50 [2]: 6.92 µg/mL | H1650 GFP Flourescence EC50 [2]: 12.1 µg/mL

B4: AbB-ZZ (antibody, human IgG1, kappa, V domains shown)
VH: EVQLQESGPGLVKPSQTLSLTCTVSGYSISNDFAWNWIRQPPGKGLEWMGYISYKGNTRYQPSLKSRITISRDTSKNQFFLKLNSVTAADTATYYCVTASRGFPWWGQGTLVTVSS
VL: DIQMTQSPSSMSVSVGDRVTITCHSSQDINSNIGWLQQKPGKSFKGLIYHGTNLDDGVPSRFSGSGSGTDYTLTISSLQPEDFATYYCVQYAQFPWTFGGGTKLEIKR
modifications: synthon ZZ on reduced interchain cysteines; average DAR 1.1 per ADC
huEGFR+ mcl-1-/- MEF EC50 [1]: 7.4 nM | H1650 CTG-3D EC50 [2]: 0.52 µg/mL | H1650 GFP Flourescence EC50 [2]: 0.61 µg/mL

B5: AbB-ZT (antibody, human IgG1, kappa, V domains shown)
VH: EVQLQESGPGLVKPSQTLSLTCTVSGYSISNDFAWNWIRQPPGKGLEWMGYISYKGNTRYQPSLKSRITISRDTSKNQFFLKLNSVTAADTATYYCVTASRGFPWWGQGTLVTVSS
VL: DIQMTQSPSSMSVSVGDRVTITCHSSQDINSNIGWLQQKPGKSFKGLIYHGTNLDDGVPSRFSGSGSGTDYTLTISSLQPEDFATYYCVQYAQFPWTFGGGTKLEIKR
modifications: synthon ZT on reduced interchain cysteines; average DAR 1.4 per ADC
huEGFR+ mcl-1-/- MEF EC50 [1]: 8.9 nM | H1650 CTG-3D EC50 [2]: 0.26 µg/mL | H1650 GFP Flourescence EC50 [2]: 0.64 µg/mL

B6: AbA-SR (antibody, human IgG1, kappa, V domains shown)
VH: EVQLQESGPGLVKPSQTLSLTCTVSGYSISRDFAWNWIRQPPGKGLEWMGYISYNGNTRYQPSLKSRITISRDTSKNQFFLKLNSVTAADTATYYCVTASRGFPYWGQGTLVTVSS
VL: DIQMTQSPSSMSVSVGDRVTITCHSSQDINSNIGWLQQKPGKSFKGLIYHGTNLDDGVPSRFSGSGSGTDYTLTISSLQPEDFATYYCVQYAQFPWTFGGGTKLEIKR
modifications: synthon SR on reduced interchain cysteines; average DAR 2.3 per ADC
huEGFR+ mcl-1-/- MEF EC50 [1]: 5.9 nM | H1650 CTG-3D EC50 [2]: 2.12 µg/mL | H1650 GFP Flourescence EC50 [2]: 2.22 µg/mL

B7: AbA-YY (antibody, human IgG1, kappa, V domains shown)
VH: EVQLQESGPGLVKPSQTLSLTCTVSGYSISRDFAWNWIRQPPGKGLEWMGYISYNGNTRYQPSLKSRITISRDTSKNQFFLKLNSVTAADTATYYCVTASRGFPYWGQGTLVTVSS
VL: DIQMTQSPSSMSVSVGDRVTITCHSSQDINSNIGWLQQKPGKSFKGLIYHGTNLDDGVPSRFSGSGSGTDYTLTISSLQPEDFATYYCVQYAQFPWTFGGGTKLEIKR
modifications: synthon YY on reduced interchain cysteines; average DAR 2.2 per ADC
huEGFR+ mcl-1-/- MEF EC50 [1]: 460 nM | H1650 CTG-3D EC50 [2]: > 40 µg/mL | H1650 GFP Flourescence EC50 [2]: 7.85 µg/mL

B8: AbA-KZ (antibody, human IgG1, kappa, V domains shown)
VH: EVQLQESGPGLVKPSQTLSLTCTVSGYSISRDFAWNWIRQPPGKGLEWMGYISYNGNTRYQPSLKSRITISRDTSKNQFFLKLNSVTAADTATYYCVTASRGFPYWGQGTLVTVSS
VL: DIQMTQSPSSMSVSVGDRVTITCHSSQDINSNIGWLQQKPGKSFKGLIYHGTNLDDGVPSRFSGSGSGTDYTLTISSLQPEDFATYYCVQYAQFPWTFGGGTKLEIKR
modifications: synthon KZ on reduced interchain cysteines; average DAR 2 per ADC
huEGFR+ mcl-1-/- MEF EC50 [1]: 152 nM | H1650 CTG-3D EC50 [2]: > 40 µg/mL | H1650 GFP Flourescence EC50 [2]: 29.3 µg/mL

B9: AbG-XW (antibody, human IgG1, kappa, V domains shown)
VH: EVQLQESGPGLVKPSQTLSLTCTVSGYSISNDFAWNWIRQLPGKGLEWMGYISYKGNTRYQPSLKSRITISRDTSKNQFFLKLNSVTAADTATYYCVTASRGLPYWGQGTLVTVSS
VL: DIQMTQSPSSMSVSVGDRVTITCHSSQDITYNIGWLQQKPGKSFKGLIYHGANLDDGVPSRFSGSGSGTDYTLTISSLQPEDFATYYCVQYDEFPWTFGGGTKLEIKR
modifications: synthon XW on reduced interchain cysteines; average DAR 3.7 per ADC
huEGFR+ mcl-1-/- MEF EC50 [1]: 19 nM | H1650 CTG-3D EC50 [2]: > 40 µg/mL | H1650 GFP Flourescence EC50 [2]: > 40 µg/mL
